The text below walks through data of patent US20230331852A1 (OSE IMMUNOTHERAPEUTICS, published 2023).

The target in assay [1] is T1, recombinant human CLEC-1 protein with His Tag (#1704-CL R&D Systems) (human, UniProt Q8NC01 74-280).
T1 construct: Bought protein; also called His-CLEC1; His Clec-1; not shown: His tag
T1 sequence: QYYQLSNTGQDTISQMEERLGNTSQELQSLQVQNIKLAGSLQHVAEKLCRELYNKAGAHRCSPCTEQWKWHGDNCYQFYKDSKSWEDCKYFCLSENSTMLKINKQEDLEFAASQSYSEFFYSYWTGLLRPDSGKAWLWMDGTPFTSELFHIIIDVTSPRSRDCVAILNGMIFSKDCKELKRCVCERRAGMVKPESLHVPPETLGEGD
The assay can be described thus: Blitz biolayer interferometry, His-CLEC1 on Ni-NTA biosensor, antibody at 20 ug/mL. In general terms: Biolayer interferometry detects binding as a change in optical thickness at a sensor tip.

Assay [2] deals with T1, recombinant human CLEC-1 protein with …. The assay is described as follows: ELISA on immobilised His-CLEC1 (from FIGURE 12). As to the method:
Method: The binding activity of the anti-hCLEC1 antibodies was assessed by ELISA (Enzyme-linked immunosorbent assay). […] A second ELISA assays was performed, like above, with immobilization of CLEC1-Fc (OSE Immunotherapeutics) at 2 μg/ml. A third ELISA assays was performed to see the cross-reactivity with mouse CLEC1. Like above, ELISA was made with immobilization of mouse Fc-CLEC1 (OSE Immunotherapeutics) at 2 μg/ml in carbonate buffer instead of His-Clec. Purified antibodies were added at different concentrations to measure binding. […] Control antibody is a commercial anti-CLEC-1A antibody.
(In general: In an ELISA, binding on a coated surface is turned into a signal by an enzyme label.)

Assay [3] has the same target. The assay can be described thus: BLI (Blitz), CLEC1-His on Ni-NTA biosensor, antibody at 20 ug/mL; chimeric antibody, FIG. 17. As to the method:
Analysis was performed with a BLItz System (Fortébio, #C22-2 No 61010-1, Molecular Devices, San José, USA).
The affinity of the anti-hCLEC1 antibodies, was measured with Blitz system (Forté Bio, C22-2 No 61010-1).

B1: chimeric anti-CLEC-1A antibody 14H9 (antibody, human IgG4 S228P, kappa, V domains shown)
VH: QVQLKESGPGLVAPSQSLSITCTISGFSLTTYGIHWVRQPPGKGLEWLVVIWSDGSTIYNSALKSRLSISKDNSKSQVFLKMNSLQTDDTAIYYCARHGGYYNYFDYWGQGTTLTVSS
VL: DIQMNQSPSSLSASLGDTITITCHASQNINVWLSWYQQKPGNIPKLLIYKASNLHTGVPSRFSGSGSGTTFTLTIDSLQPEDIATYYCQQGQSYWTFGGGTKLEIKR
notes: also called 14H9chim; 14H9-VHwt-FcG4m / 14H9-VLwt-CLhk
Take B1: in assay [1], the Kd – broadly, the free concentration of one partner at which half of the binding sites on the other are occupied at equilibrium, for simple one-to-one binding – stood at 15.9 nM; the koff – broadly, the first-order rate constant of dissociation – was determined as 0.00124 s⁻¹; the kon (usually a measure of how fast the partners come together) stood at 78000 M⁻¹ s⁻¹. Besides, the EC50 (in general, the concentration at which the effect is half-maximal) in assay [2] was 0.148 µg/mL. Further, the Kd in assay [3] is roughly 10 nM.
